# Measured values as given in patent publication US20250296971A1, “GASTRIC INHIBITORY PEPTIDE RECEPTOR LIGANDS” (priority 2021, published 2025).
# *1 amine or outer side, *2 acyl side, *3 side chain or, on linkers, in order; H or OH if unused. Bridges are numbered along the chain shown (N, C = ends). Primed or numbered codes have the meaning given here. [ ]: non-standard residue; d: D form. The star is where a group is joined. DOTA(In) = O=C1CN2CCN3CCN(CC(=O)*)CCN(CC2)CC(=O)[O][In]([O]1)[O]C(=O)C3; APAc″ = 4-amino-1-carboxymethylpiperidine, NC1CCN(CC(=O)*)CC1; dE(AGLU) = D-glutamic acid bearing 1-amino-1-deoxy-D-glucitol; Pro(trans-4-NH2) = O=C([C@@H]1C[C@@H](N[*:3])CN1[*:1])[*:2]; DO3AM = NC(=O)CN1CCN(CC(N)=O)CCN(CC(=O)*)CCN(CC(N)=O)CC1; DOTA = O=C(O)CN1CCN(CC(=O)O)CCN(CC(=O)*)CCN(CC(=O)O)CC1; 2Lut = 2,6-lutidylidene bridge between two thiols; Trp(5-Cl) = N[C@@H](Cc1c[nH]c2ccc(Cl)cc12)C(=O)O; Pyridine(2,6-diCH2) = c1cc(C[*:1])nc(C[*:2])c1; Trp(5-F) = N[C@@H](Cc1c[nH]c2ccc(F)cc12)C(=O)O; APAc = 4-amino-1-carboxymethylpiperidine; 1Nal = N[C@@H](Cc1cccc2ccccc12)C(=O)O; Glutaryl = O=C(CCCC(=O)[*:2])[*:1]; AGLU = 1-amino-1-deoxy-D-glucitol; mli = maleimide bridging scaffold; Hyp = O=C(O)[C@@H]1C[C@@H](O)CN1; Cha = N[C@@H](CC1CCCCC1)C(=O)O; Cysteamide = C(CS[*:3])N[*:1]; Suc = O=C(CCC(=O)[*:2])[*:1]; αMeK = C[C@](N)(CCCCN)C(=O)O; hCys = N[C@@H](CCS)C(=O)O; Api = NC1(C(=O)O)CCNCC1; Thp = NC1(C(=O)O)CCOCC1; NH(CH2)5NH2 = NCCCCCN*; DOTA′ = DOTA chelator
# B1: AGLU-Glutar-Asp-Trp-5Clw-Hyp-Glu-leu-[Cys(2Lut)-Apc(InDOTA)-Leu-Ile-AET] (peptide)
# peptide: {AGLU-Glutaryl}-DW[Trp(5-Cl)][Hyp]E[dL]C[Api](DOTA(In))LI[Cysteamide]
# modifications: thioether (positions not given here) via Pyridine(2,6-diCH2); not fully specified (bridges); printed as AGLU-Glutar-Asp-Trp-5Clw-Hyp-Glu-leu-[Cys(2Lut)-Apc(InDOTA)-Leu-Ile-AET]; also: In complex of DOTA
# B2: DOTA-APAc-Asp-Trp-5Clw-Hyp-Glu-leu-[Cys(2Lut)-Thp-Leu-Ile-AET] (peptide)
# peptide: {DOTA-APAc″}-DW[Trp(5-Cl)][Hyp]E[dL]C[Thp]LI[Cysteamide]
# modifications: linker (positions not given here) via Pyridine(2,6-diCH2); not fully specified (bridges); printed as DOTA-APAc-Asp-Trp-5Clw-Hyp-Glu-leu-[Cys(2Lut)-Thp-Leu-Ile-AET]
# B3: Ac-Asp-1Ni-5Clw-Hyp-Glu-leu-[Cys(2Lut)-Thp-Leu-Ile-Cys]-NH2 (peptide)
# peptide: Ac-D[1Nal][Trp(5-Cl)][Hyp]E[dL]C[Thp]LIC-NH2
# modifications: linker 7-11 via Pyridine(2,6-diCH2)
# SMILES: CC[C@H](C)[C@@H]1NC(=O)[C@H](CC(C)C)NC(=O)C2(CCOCC2)NC(=O)[C@@H](NC(=O)[C@@H](CC(C)C)NC(=O)[C@H](CCC(=O)O)NC(=O)[C@@H]2C[C@@H](O)CN2C(=O)[C@H](Cc2c[nH]c3ccc(Cl)cc23)NC(=O)[C@H](Cc2cccc3ccccc23)NC(=O)[C@H](CC(=O)O)NC(C)=O)CSCc2cccc(n2)CSC[C@@H](C(N)=O)NC1=O
# Target: biotinylated extracellular domain of the human GIP receptor (bioGIPR) (human) (UniProt P48546)
# Sequence (P48546 24-138 limits assumed): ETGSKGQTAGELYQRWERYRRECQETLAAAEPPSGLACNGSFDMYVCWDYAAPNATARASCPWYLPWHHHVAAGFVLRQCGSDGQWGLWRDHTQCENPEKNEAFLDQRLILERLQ
# Experiment: SPR single cycle kinetics, bioGIPR captured on chip; category A: pKD >9.0
row,pKD,Binder
1,> 9 pkd,B1
2,> 9 pkd,Suc-W[Trp(5-Cl)][Hyp]E[dL]C[Api](DOTA)LI[Cysteamide] (linker 6-10 via 2Lut) [HO-Succinyl-Trp-5Clw-Hyp-Glu-leu-[Cys(2Lut)-Apc(DOTA)-Leu-Ile-AET]]
3,> 9 pkd,Suc-W[Trp(5-Cl)][Hyp]E[dL]C[Thp]LIC-{NH(CH2)5NH2-DOTA′} (linker 6-10 via 2Lut) [HO-Succinyl-Trp-5Clw-Hyp-Glu-leu-[Cys(2Lut)-Thp-Leu-Ile-Cys]-Ape-DOTA]
4,> 9 pkd,B2

# Target: human Gastric Inhibitory Peptide Receptor (human) (UniProt P48546)
# Sequence (P48546 22-466 limits assumed): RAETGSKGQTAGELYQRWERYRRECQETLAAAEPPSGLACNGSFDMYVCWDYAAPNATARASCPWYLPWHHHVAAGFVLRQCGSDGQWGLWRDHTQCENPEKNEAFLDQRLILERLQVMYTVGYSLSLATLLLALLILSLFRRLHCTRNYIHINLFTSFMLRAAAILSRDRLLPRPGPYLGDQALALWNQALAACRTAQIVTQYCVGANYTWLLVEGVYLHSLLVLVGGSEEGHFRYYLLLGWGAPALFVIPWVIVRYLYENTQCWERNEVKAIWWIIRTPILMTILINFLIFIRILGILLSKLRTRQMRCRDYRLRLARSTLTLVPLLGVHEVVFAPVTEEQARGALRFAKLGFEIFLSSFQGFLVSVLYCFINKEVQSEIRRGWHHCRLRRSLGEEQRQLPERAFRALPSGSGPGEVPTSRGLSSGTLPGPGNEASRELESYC
# Experiment: FACS competition with GIP-057 on CHO-K1-hGIPR cells; pIC50 category A: >8.0
row,pIC50,Binder
1,> 8 pic50,B1
2,> 8 pic50,Suc-W[Trp(5-Cl)][Hyp]E[dL]C[Api](DOTA)LI[Cysteamide] (linker 6-10 via 2Lut) [HO-Succinyl-Trp-5Clw-Hyp-Glu-leu-[Cys(2Lut)-Apc(DOTA)-Leu-Ile-AET]]
3,> 8 pic50,Suc-W[Trp(5-Cl)][Hyp]E[dL]C[Thp]LIC-{NH(CH2)5NH2-DOTA′} (linker 6-10 via 2Lut) [HO-Succinyl-Trp-5Clw-Hyp-Glu-leu-[Cys(2Lut)-Thp-Leu-Ile-Cys]-Ape-DOTA]
4,> 8 pic50,B2

# Target: biotinylated extracellular domain of the human GIP receptor (bioGIPR) (human) (UniProt P48546)
# Experiment: SPR single cycle kinetics, bioGIPR captured on chip; category A: t1/2 >15 min
row,t1/2,Binder
1,> 15 min,B1
2,> 15 min,Suc-W[Trp(5-Cl)][Hyp]E[dL]C[Api](DOTA)LI[Cysteamide] (linker 6-10 via 2Lut) [HO-Succinyl-Trp-5Clw-Hyp-Glu-leu-[Cys(2Lut)-Apc(DOTA)-Leu-Ile-AET]]
3,> 15 min,Suc-W[Trp(5-Cl)][Hyp]E[dL]C[Thp]LIC-{NH(CH2)5NH2-DOTA′} (linker 6-10 via 2Lut) [HO-Succinyl-Trp-5Clw-Hyp-Glu-leu-[Cys(2Lut)-Thp-Leu-Ile-Cys]-Ape-DOTA]
4,> 15 min,B2

# Target: human Gastric Inhibitory Peptide Receptor (GIPR) (human) (UniProt P48546)
# Sequence (P48546 22-466 limits assumed): as above
# Experiment: FACS competition vs biotinylated GIP-057 on CHO-K1-hGIPR cells; category A: pIC50 >8.0
row,pIC50,Binder
1,> 8 pic50,"Ac-D[Trp(5-Cl)][Trp(5-Cl)][Hyp]E[dL]C[Thp]LIC-NH2 (linker 7-11 via Pyridine(2,6-diCH2)) [Ac-Asp-5Clw-5Clw-Hyp-Glu-leu-[Cys(2Lut)-Thp-Leu-Ile-Cys]-NH2]"
2,> 8 pic50,"{AGLU-Glutaryl}-DW[Trp(5-Cl)][Pro(trans-4-NH2)]E[dL]C[Api](DO3AM)LIC-{APAc-dE(AGLU)-NH2} (linker 7-11 via Pyridine(2,6-diCH2)) [AGLU-Glutar-Asp-Trp-5Clw-Tap-Glu-leu-[Cys(2Lut)-Apc(DOTAM)-Leu-Ile-Cys]-APAc-glu(AGLU)-NH2]"
3,> 8 pic50,"Ac-[dD]W[Trp(5-Cl)][Hyp]E[dL]C[Thp]LIC-NH2 (linker 7-11 via Pyridine(2,6-diCH2)) [Ac-asp-Trp-5Clw-Hyp-Glu-leu-[Cys(2Lut)-Thp-Leu-Ile-Cys]-NH2]"
4,> 8 pic50,B3
5,> 8 pic50,"Ac-DW[Trp(5-Cl)][Hyp]S[dL]C[Thp]LIC-NH2 (linker 7-11 via Pyridine(2,6-diCH2)) [Ac-Asp-Trp-5Clw-Hyp-Ser-leu-[Cys(2Lut)-Thp-Leu-Ile-Cys]-NH2]"
6,> 8 pic50,"Ac-DW[Trp(5-Cl)][Hyp]A[dL]C[Thp]LIC-NH2 (linker 7-11 via Pyridine(2,6-diCH2)) [Ac-Asp-Trp-5Clw-Hyp-Ala-leu-[Cys(2Lut)-Thp-Leu-Ile-Cys]-NH2]"
7,> 8 pic50,Ac-DW[Trp(5-Cl)][Hyp]E[dL]C[Thp]LI[hCys]-NH2 (linker 7-11 via mli) [Ac-Asp-Trp-5Clw-Hyp-Glu-leu-[Cys(mli)-Thp-Leu-Ile-Hcy]-NH2]
8,> 8 pic50,"Ac-DW[Trp(5-Cl)][Hyp]E[dL]C[Thp][Cha]IC-NH2 (linker 7-11 via Pyridine(2,6-diCH2)) [Ac-Asp-Trp-5Clw-Hyp-Glu-leu-[Cys(2Lut)-Thp-Cha-Ile-Cys]-NH2]"
9,> 8 pic50,"Ac-D[Trp(5-F)][Trp(5-Cl)][Hyp]E[dL]C[Thp]LIC-NH2 (linker 7-11 via Pyridine(2,6-diCH2)) [Ac-Asp-5Fw-5Clw-Hyp-Glu-leu-[Cys(2Lut)-Thp-Leu-Ile-Cys]-NH2]"
10,> 8 pic50,"{AGLU-Glutaryl}-DW[Trp(5-Cl)][Pro(trans-4-NH2)]E[dL]C[αMeK](DOTA)LIC-{APAc-dE(AGLU)-NH2} (linker 7-11 via Pyridine(2,6-diCH2)) [AGLU-Glutar-Asp-Trp-5Clw-Tap-Glu-leu-[Cys(2Lut)-Amk(DOTA)-Leu-Ile-Cys]-APAc-glu(AGLU)-NH2]"
11,> 8 pic50,"Ac-DW[Trp(5-Cl)][Hyp]V[dL]C[Thp]LIC-NH2 (linker 7-11 via Pyridine(2,6-diCH2)) [Ac-Asp-Trp-5Clw-Hyp-Val-leu-[Cys(2Lut)-Thp-Leu-Ile-Cys]-NH2]"
